What was measured:
[1] = target: adenosine A1 receptor fused to a hemi-Rluc8 (A1R-nRluc8) or to a hemi-Venus (A1R-nVenus) (human) (UniProt P30542)
[2] = target: the molecule itself; experiment: single-particle tracking and brightness analysis (TIRFM); living HEK-293T cells expressing A1R-GFP alone or A2AR-mCherry alone; number of receptors in a particle from the brightness distribution of the individual particles

Sequence of adenosine A1 receptor fused to a hemi-Rluc8 (A1R-nRluc8) or to a hemi-Venus (A1R-nVenus) (human) (P30542 whole entry, the tested form may be a part): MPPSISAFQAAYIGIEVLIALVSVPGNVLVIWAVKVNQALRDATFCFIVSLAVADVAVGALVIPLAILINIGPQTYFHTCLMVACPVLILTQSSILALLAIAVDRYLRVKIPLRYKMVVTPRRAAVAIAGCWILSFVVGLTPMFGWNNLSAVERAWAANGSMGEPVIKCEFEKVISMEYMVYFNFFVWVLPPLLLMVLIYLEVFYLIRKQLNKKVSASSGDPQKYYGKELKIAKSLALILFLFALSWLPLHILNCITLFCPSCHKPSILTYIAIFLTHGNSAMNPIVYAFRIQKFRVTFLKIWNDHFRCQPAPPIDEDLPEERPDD
Sequence of α-subunit of Gi fused to Rluc (Gi-Rluc) (P63096 whole entry, the tested form may be a part): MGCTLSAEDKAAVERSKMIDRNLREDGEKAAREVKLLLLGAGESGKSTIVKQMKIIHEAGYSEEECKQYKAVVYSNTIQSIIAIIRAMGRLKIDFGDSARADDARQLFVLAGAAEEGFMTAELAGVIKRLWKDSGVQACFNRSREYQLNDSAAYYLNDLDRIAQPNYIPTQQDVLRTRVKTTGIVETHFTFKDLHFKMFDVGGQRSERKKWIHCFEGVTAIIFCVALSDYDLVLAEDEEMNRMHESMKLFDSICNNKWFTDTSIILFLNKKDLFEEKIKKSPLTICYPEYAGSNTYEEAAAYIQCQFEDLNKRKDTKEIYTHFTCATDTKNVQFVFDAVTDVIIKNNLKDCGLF

Row | Molecule | decrease of BRETmax of the complementation BRET (A1R and A2AR fused to hemi-Rluc8 and hemi-Venus, the heterotetramer) after pertussis toxin (10 ng/ml, 16 h); endogenous Gi [1] [%] | stoichiometry N [2]
1 | α-subunit of Gi fused to Rluc (Gi-Rluc) (from UniProt P63096 1-354) (natural protein) | 35 | 
2 | adenosine A2A receptor fused to mCherry (A2AR-mCherry) (receptor, human, UniProt P29274 1-412, looked up, adenosine A2A receptor, human, UniProt P29274; The construct for single-particle tracking is not described in the main text; details may stand in Additional file 11 (Supplementary methods); also called A2A-mCherry; A2A-Cherry; source: HEK-293T, transiently transfected, on living cells; not shown: mCherry, C-terminal, kept) MPIMGSSVYITVELAIAVLAILGNVLVCWAVWLNSNLQNVTNYFVVSLAAADIAVGVLAIPFAITISTGFCAACHGCLFIACFVLVLTQSSIFSLLAIAIDRYIAIRIPLRYNGLVTGTRAKGIIAICWVLSFAIGLTPMLGWNNCGQPKEGKNHSQGCGEGQVACLFEDVVPMNYMVYFNFFACVLVPLLLMLGVYLRIFLAARRQLKQMESQPLPGERARSTLQKEVHAAKSLAIIVGLFALCWLPLHIINCFTFFCPDCSHAPLWLMYLAIVLSHTNSVVNPFIYAYRIREFRQTFRKIIRSHVLRQQEPFKAAGTSARVLAAHGSDGEQVSLRLNGHPPGVWANGSAPHPERRPNGYALGLVSGGSAQESQGNTGLPDVELLSHELKGVCPEPPGLDDPLAQDGAGVS |  | 3

— article PMC4822319, “Quaternary structure of a G-protein-coupled receptor heterotetramer in complex with Gi and Gs” (BMC Biology, 2016)
